Experimental findings from patent US20200291444A1, “Macrocyclisation Tags” (Oxford University Innovation LTD, priority 2017, published 2020) are described below.

In experiment [1] the target is T1, GmPOPB_S577A (Galerina marginata), H2E7Q8.
T1 chain: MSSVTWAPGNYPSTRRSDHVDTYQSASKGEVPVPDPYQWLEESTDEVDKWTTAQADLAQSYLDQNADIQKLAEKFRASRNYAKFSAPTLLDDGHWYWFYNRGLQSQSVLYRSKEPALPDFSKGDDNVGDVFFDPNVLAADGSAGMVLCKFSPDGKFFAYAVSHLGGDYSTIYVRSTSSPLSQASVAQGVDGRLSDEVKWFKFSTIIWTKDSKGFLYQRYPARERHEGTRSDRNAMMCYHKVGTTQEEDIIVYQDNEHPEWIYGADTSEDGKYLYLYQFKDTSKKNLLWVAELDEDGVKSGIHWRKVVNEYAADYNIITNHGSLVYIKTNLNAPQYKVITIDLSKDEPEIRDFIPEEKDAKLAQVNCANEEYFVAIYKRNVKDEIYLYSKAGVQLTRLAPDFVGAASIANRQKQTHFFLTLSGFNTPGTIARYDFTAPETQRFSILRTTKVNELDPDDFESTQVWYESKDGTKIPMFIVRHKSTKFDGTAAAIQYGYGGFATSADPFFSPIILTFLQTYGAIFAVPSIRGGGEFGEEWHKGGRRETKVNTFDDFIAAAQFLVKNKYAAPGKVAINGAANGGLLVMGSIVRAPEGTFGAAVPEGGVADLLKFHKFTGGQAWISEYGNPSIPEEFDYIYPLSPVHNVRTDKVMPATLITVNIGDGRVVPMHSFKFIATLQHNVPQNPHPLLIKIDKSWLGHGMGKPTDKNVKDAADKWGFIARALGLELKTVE
Nature of the experiment: ITC, peptide titrated into GmPOPB_S577A, 20 C. (ITC needs no label: the signal is the heat of the interaction.)

For experiment [2], the target named is T1, GmPOPB_S577A (Galerina marginata), …. Nature of the experiment: ITC.
For experiment [3] the target is unchanged. The experiment in a line: ITC, 20 C, single-site model.

What is called Kd is a measure of binding affinity in units of concentration. A higher Kd goes with lower affinity. IWGIGCNPWTAEHV (modifications not checked) [14mer truncated substrate] displayed a Kd in experiment [1] of 9.5 µM. In experiment [1], VDQTLASGNDIC (modifications not checked) had a Kd of 5 µM. The same molecule registered a fold reduction of binding affinity against the 17mer recognition sequence in experiment [2] of 20 fold. For the molecule TLASGNDIC (modifications not checked), the Kd in experiment [1] turned out to be 121 µM. In turn, IWGIGCNPWT (modifications not checked) [10mer truncated substrate] came in with a Kd in experiment [1] of 83 µM.

The molecule IWGIGCNPWTA (modifications not checked) [11mer truncated substrate] returned a dissociation constant Kd in experiment [1] of 39 µM.

The molecule IWGIGCNPWTAE (modifications not checked) [12mer truncated substrate] displayed a Kd in experiment [1] of 21 µM. In experiment [3], WTAEHVDQTLASGNDIC (modifications not checked) [recognition sequence (17mer) …] yielded a dissociation constant Kd of 0.43 µM.

For the molecule IWGIGCNPWTAEH (modifications not checked) [13mer truncated substrate], the equilibrium dissociation constant (Kd) in experiment [1] is 2.4 µM. In experiment [2], this molecule displayed a fold difference in affinity against the 35mer of 20 fold and a fold reduction in binding against the 35mer of 10 fold.
